Data published in US20150017657A1, “ASSAY AND METHOD FOR IDENTIFYING COMPOUNDS THAT INHIBIT EXCITOTOXIC SIGNALS” (THE UNIVERSITY OF SYDNEY, priority 2011, published 2015).
No end group written: not given here.

Target: T1, Tau protein bound to Fyn protein (N-GFP-Fyn / C-GFP-Tau) (Homo sapiens, UniProt P06241)
T1 construct: A nucleic acid encoding amino acids 83-145 of human Fyn was cloned into the N-GFP-pLVX vector; N-GFP (GFP aa 1-158) with GGSG linker and XbaI-encoded SR; expressed in transfected cells; host or cells: COS-7 cells, lentiviral pLVX constructs, stably expressed
T1 sequence (P06241 83-145): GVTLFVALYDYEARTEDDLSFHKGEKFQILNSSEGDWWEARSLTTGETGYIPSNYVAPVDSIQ
Assay: split-GFP reassembly assay of Tau/Fyn binding in transfected COS-7 cells
Format: cell-based
Conditions: 200 nM peptide, 1 hour at 37 degree Celsius; COS-7 cells expressing N-GFP-Fyn and N-terminal C-GFP-Tau; plate reader or fluorescence microscope (FIG. 5)
From the text: Lentiviruses containing either combination of constructs, i.e. N-terminal C-GFP fused to Tau and N-GFP fused to Fyn, or C-terminal C-GFP fused to Tau and N-GFP fused to Fyn, were then generated using standard protocols (e.g. Krupka et al., Plasmid, 2010, 63(3):155-60) and stably expressed in COS-7 cells.
However, transfection of constructs encoding N-terminal C-GFP fused to Tau and N-GFP fused to Fyn did result in green fluorescing cells (FIG. 5).
Cells generated by the methods described in Example 1 were grown till confluent in 96-well plates and then the fluorescence was measured in a 96-well plate reader (Omega, BMG) or by via fluorescence microscope. The cells were then incubated with 200 nM of the Tat-7PXXP peptide for 1 hour at 37 degree Celsius. The fluorescence was again measured in a 96-well plate reader (Omega, BMG) or via a fluorescence microscope.

YGRKKRRQRRRTPPKSPSS [Tat-7PXXP]
fluorescence of the transfected cells: negligible
